Reference: US10131702B2, “Glucagon-GLP-1-GIP triple agonist compounds” (priority 2013, dated 2018)
Where two headings read alike, the source gives them in different places. Numbered stars: 1 amine (or outer) side, 2 acyl side, 3 side chain; on linkers, the order of the positions; unused ones are H or OH. Square brackets hold non-standard residues; d marks the D form. Side chains are listed from the residue outwards. Peptide text beside a SMILES is read from it. * marks the point of attachment. γGlu = O=C(O)[C@H](CCC(=O)[*:2])N[*:1]; Stearoyl = CCCCCCCCCCCCCCCCCC(=O)*; Palmitoyl = CCCCCCCCCCCCCCCC(=O)*; Aib = CC(C)(N)C(=O)O

B1: Compound 5 (peptide)
peptide: YAQGTFTSDYSIYLDSKAAHDFVEWLLSA
HELM: PEPTIDE1{Y.[Aib].Q.G.T.F.T.S.D.Y.S.I.Y.L.D.S.K.A.A.H.D.F.V.E.W.L.L.S.A.[am]}$$$$V2.0
SMILES: CC[C@H](C)[C@H](NC(=O)[C@H](CO)NC(=O)[C@H](Cc1ccc(O)cc1)NC(=O)[C@H](CC(=O)O)NC(=O)[C@H](CO)NC(=O)[C@@H](NC(=O)[C@H](Cc1ccccc1)NC(=O)[C@@H](NC(=O)CNC(=O)[C@H](CCC(N)=O)NC(=O)C(C)(C)NC(=O)[C@@H](N)Cc1ccc(O)cc1)[C@@H](C)O)[C@@H](C)O)C(=O)N[C@@H](Cc1ccc(O)cc1)C(=O)N[C@@H](CC(C)C)C(=O)N[C@@H](CC(=O)O)C(=O)N[C@@H](CO)C(=O)N[C@@H](CCCCN)C(=O)N[C@@H](C)C(=O)N[C@@H](C)C(=O)N[C@@H](Cc1c[nH]cn1)C(=O)N[C@@H](CC(=O)O)C(=O)N[C@@H](Cc1ccccc1)C(=O)N[C@H](C(=O)N[C@@H](CCC(=O)O)C(=O)N[C@@H](Cc1c[nH]c2ccccc12)C(=O)N[C@@H](CC(C)C)C(=O)N[C@@H](CC(C)C)C(=O)N[C@@H](CO)C(=O)N[C@@H](C)C(N)=O)C(C)C
B2: Compound 6 (peptide)
peptide: YAQGTFTSDYSKYLDSKAARDFVEWLLSA
HELM: PEPTIDE1{Y.[Aib].Q.G.T.F.T.S.D.Y.S.K.Y.L.D.S.K.A.A.R.D.F.V.E.W.L.L.S.A.[am]}$$$$V2.0
SMILES: CC(C)C[C@H](NC(=O)[C@H](CC(C)C)NC(=O)[C@H](Cc1c[nH]c2ccccc12)NC(=O)[C@H](CCC(=O)O)NC(=O)[C@@H](NC(=O)[C@H](Cc1ccccc1)NC(=O)[C@H](CC(=O)O)NC(=O)[C@H](CCCNC(=N)N)NC(=O)[C@H](C)NC(=O)[C@H](C)NC(=O)[C@H](CCCCN)NC(=O)[C@H](CO)NC(=O)[C@H](CC(=O)O)NC(=O)[C@H](CC(C)C)NC(=O)[C@H](Cc1ccc(O)cc1)NC(=O)[C@H](CCCCN)NC(=O)[C@H](CO)NC(=O)[C@H](Cc1ccc(O)cc1)NC(=O)[C@H](CC(=O)O)NC(=O)[C@H](CO)NC(=O)[C@@H](NC(=O)[C@H](Cc1ccccc1)NC(=O)[C@@H](NC(=O)CNC(=O)[C@H](CCC(N)=O)NC(=O)C(C)(C)NC(=O)[C@@H](N)Cc1ccc(O)cc1)[C@@H](C)O)[C@@H](C)O)C(C)C)C(=O)N[C@@H](CO)C(=O)N[C@@H](C)C(N)=O
B3: Compound 3 (peptide)
peptide: YAQGTFTSDYSKYLDSKAAHDFVEWLLRA
HELM: PEPTIDE1{Y.[Aib].Q.G.T.F.T.S.D.Y.S.K.Y.L.D.S.K.A.A.H.D.F.V.E.W.L.L.R.A.[am]}$$$$V2.0
SMILES: CC(C)C[C@H](NC(=O)[C@H](CC(C)C)NC(=O)[C@H](Cc1c[nH]c2ccccc12)NC(=O)[C@H](CCC(=O)O)NC(=O)[C@@H](NC(=O)[C@H](Cc1ccccc1)NC(=O)[C@H](CC(=O)O)NC(=O)[C@H](Cc1c[nH]cn1)NC(=O)[C@H](C)NC(=O)[C@H](C)NC(=O)[C@H](CCCCN)NC(=O)[C@H](CO)NC(=O)[C@H](CC(=O)O)NC(=O)[C@H](CC(C)C)NC(=O)[C@H](Cc1ccc(O)cc1)NC(=O)[C@H](CCCCN)NC(=O)[C@H](CO)NC(=O)[C@H](Cc1ccc(O)cc1)NC(=O)[C@H](CC(=O)O)NC(=O)[C@H](CO)NC(=O)[C@@H](NC(=O)[C@H](Cc1ccccc1)NC(=O)[C@@H](NC(=O)CNC(=O)[C@H](CCC(N)=O)NC(=O)C(C)(C)NC(=O)[C@@H](N)Cc1ccc(O)cc1)[C@@H](C)O)[C@@H](C)O)C(C)C)C(=O)N[C@@H](CCCNC(=N)N)C(=O)N[C@@H](C)C(N)=O

Key:
human GCG R = target: T1, human GCG R (Homo sapiens, UniProt P47871); experiment: cAMP induction in HEK293 cells expressing human GCG R (AlphaScreen cAMP kit); type: cell-based
T1 construct: expressed in transfected cells
T1 sequence (P47871 26-477): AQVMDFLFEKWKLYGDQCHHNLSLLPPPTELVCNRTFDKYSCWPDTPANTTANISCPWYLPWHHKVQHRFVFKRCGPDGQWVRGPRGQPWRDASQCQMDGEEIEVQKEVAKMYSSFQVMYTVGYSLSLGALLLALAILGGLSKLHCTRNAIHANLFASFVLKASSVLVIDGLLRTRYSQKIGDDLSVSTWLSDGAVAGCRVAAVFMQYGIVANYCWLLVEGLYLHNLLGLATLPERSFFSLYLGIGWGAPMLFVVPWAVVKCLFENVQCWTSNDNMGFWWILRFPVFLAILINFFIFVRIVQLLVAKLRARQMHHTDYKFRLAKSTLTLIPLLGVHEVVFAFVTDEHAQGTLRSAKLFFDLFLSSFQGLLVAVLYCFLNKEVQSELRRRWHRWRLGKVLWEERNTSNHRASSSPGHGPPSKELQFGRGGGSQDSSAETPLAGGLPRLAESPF

human GLP-1 R = target: T2, human GLP-1 R (Homo sapiens, UniProt P43220); experiment: cAMP induction in HEK293 cells expressing human GLP-1 R (AlphaScreen cAMP kit); type: cell-based
T2 construct: expressed in transfected cells
T2 sequence (P43220 24-463): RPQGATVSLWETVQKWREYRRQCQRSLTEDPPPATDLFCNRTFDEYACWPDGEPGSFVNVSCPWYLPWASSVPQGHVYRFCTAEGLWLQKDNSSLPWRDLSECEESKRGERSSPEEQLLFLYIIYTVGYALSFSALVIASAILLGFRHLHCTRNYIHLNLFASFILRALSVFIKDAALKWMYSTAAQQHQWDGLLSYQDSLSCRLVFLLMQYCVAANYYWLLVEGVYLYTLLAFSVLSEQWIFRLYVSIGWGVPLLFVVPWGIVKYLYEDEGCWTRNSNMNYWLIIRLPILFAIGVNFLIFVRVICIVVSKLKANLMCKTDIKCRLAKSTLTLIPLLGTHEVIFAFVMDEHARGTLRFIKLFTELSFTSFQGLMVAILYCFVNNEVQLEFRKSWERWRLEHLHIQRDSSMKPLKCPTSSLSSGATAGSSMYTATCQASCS

human GIP R = target: T3, human GIP R (Homo sapiens, UniProt P48546); experiment: cAMP induction in HEK293 cells expressing human GIP R (AlphaScreen cAMP kit); type: cell-based
T3 construct: expressed in transfected cells
T3 sequence (P48546 22-466): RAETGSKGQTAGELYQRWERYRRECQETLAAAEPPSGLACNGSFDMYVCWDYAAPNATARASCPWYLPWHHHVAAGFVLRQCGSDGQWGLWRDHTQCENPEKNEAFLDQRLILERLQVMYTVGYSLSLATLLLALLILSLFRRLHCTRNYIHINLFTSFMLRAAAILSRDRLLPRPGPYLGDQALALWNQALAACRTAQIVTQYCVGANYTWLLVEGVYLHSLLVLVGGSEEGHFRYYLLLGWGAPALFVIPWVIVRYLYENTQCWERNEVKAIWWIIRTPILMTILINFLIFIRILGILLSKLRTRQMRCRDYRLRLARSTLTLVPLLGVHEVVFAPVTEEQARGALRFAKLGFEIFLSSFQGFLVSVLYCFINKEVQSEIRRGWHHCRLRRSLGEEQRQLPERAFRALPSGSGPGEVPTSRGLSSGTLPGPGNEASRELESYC
Description: Briefly, HEK293 cells expressing the human GIP R, GLP-1 R or GCG R (stable cell lines generated through transfection of the cDNA for human GIP R, GLP-1 R or GCG R and selection of stable clones) were seeded at 30,000 cells/well in 96-well microtiter plates coated with 0.01% poly-L-lysine, and grown for 1 day in culture in 200 μl growth medium (DMEM, 10% FCS, Penicillin (100 IU/ml), Streptomycin (100 μg/ml)). On the day of analysis, growth medium was removed and the cells were washed once with 150 μl Tyrode's buffer (Tyrode's Salts (9.6 g/l), 10 mM HEPES, pH 7.4). […] The Assay buffer was removed and cells are lysed in 80 μl Lysis buffer (0.1% w/v BSA, 5 mM HEPES, 0.3% v/v Tween-20) per well. From each well 10 μl of lysed cells were transferred to a 384-well plate and mixed with 15 μl bead-mix (1 Unit/15 μl anti-cAMP Acceptor Beads, 1 Unit/15 μl Donor Beads, and 1 Unit/15 μl Biotinylated cAMP in Assay Buffer). The plates were mixed and incubated in the dark for an hour at room temperature before measuring using an Envision™ plate reader (Perkin-Elmer).
The resulting cAMP curves were plotted as absolute cAMP concentrations (nM) over log (test compound concentration) and analyzed using the curve fitting program XLfit.
Parameters calculated to describe both the potency as well as the agonistic activity of each test compound on the receptors were:
EC50, a concentration resulting in a half-maximal elevation of cAMP levels, reflecting the potency of the test compound.

[1] = target: T4, human glucagon-like peptide 1 receptor (human, UniProt P43220 24-463); experiment: cell-based or functional assay
human GIP receptor [2] = target: T5, human GIP receptor (human, UniProt P48546 22-466); experiment: cell-based or functional assay
T5 sequence: T3 sequence (P48546 22-466)

human glucagon receptor [3] = target: T6, human glucagon receptor (human, UniProt P47871 26-477); experiment: cell-based or functional assay
T6 sequence (P47871 26-477): as the sequence (P47871 26-477) above

[4] = target: T4, human glucagon-like peptide 1 receptor; experiment: cell-based or functional assay; remark: listed apart in the source
human GIP receptor [5] = target: T5, human GIP receptor; experiment: cell-based or functional assay; remark: listed apart in the source
human glucagon receptor [6] = target: T6, human glucagon receptor; experiment: cell-based or functional assay; remark: listed apart in the source
[7] = Table 2b (most comprehensive data), average EC50, cAMP, HEK293 cells expressing human GLP-1 R, read-out: GLP1 R (EC50 in nM)

Molecule	EC50 (human GCG R; Table 2, average EC50, cAMP, HEK293 cells expressing human GCG R, read-out: GCG R (EC50 in nM))	EC50 (human GLP-1 R)	EC50 (human GLP-1 R; [7])	EC50 (human GIP R; Table 2, average EC50, cAMP, read-out: GIP R (EC50 in nM))	EC50 (human GIP R; Table 2b (most comprehensive data), average EC50, cAMP, read-out: GIP R (EC50 in nM))	EC50 (human GCG R)	EC50 (human GLP-1 R; Table 2, average EC50, cAMP, HEK293 cells expressing human GLP-1 R, read-out: GLP1 R (EC50 in nM))	EC50 (human GIP R; GIP R (EC50 in nM), Table 2, average EC50, cAMP)	EC50 (human GIP R; GIP R (EC50 in nM), Table 2b (most comprehensive data), average EC50, cAMP)	EC50 (cAMP induction) [1]	EC50 (cAMP induction) (human GIP receptor [2])	EC50 (cAMP induction) (human glucagon receptor [3])	EC50 (cAMP induction) [4]	EC50 (cAMP induction) (human GIP receptor [5])	EC50 (cAMP induction) (human glucagon receptor [6])
CCCCCCCCCCCCCCCC(=O)N[C@@H](CCC(=O)NCCCC[C@H](NC(=O)[C@H](CO)NC(=O)[C@H](CC(=O)O)NC(=O)[C@H](CC(C)C)NC(=O)[C@H](Cc1ccc(O)cc1)NC(=O)[C@@H](NC(=O)[C@H](CO)NC(=O)[C@H](Cc1ccc(O)cc1)NC(=O)[C@H](CC(=O)O)NC(=O)[C@H](CO)NC(=O)[C@@H](NC(=O)[C@H](Cc1ccccc1)NC(=O)[C@@H](NC(=O)CNC(=O)[C@H](CCC(N)=O)NC(=O)C(C)(C)NC(=O)[C@@H](N)Cc1ccc(O)cc1)[C@@H](C)O)[C@@H](C)O)[C@@H](C)CC)C(=O)N[C@@H](C)C(=O)N[C@@H](C)C(=O)N[C@@H](Cc1c[nH]cn1)C(=O)N[C@@H](CC(=O)O)C(=O)N[C@@H](Cc1ccccc1)C(=O)N[C@H](C(=O)N[C@@H](CCC(=O)O)C(=O)N[C@@H](Cc1c[nH]c2ccccc12)C(=O)N[C@@H](CC(C)C)C(=O)N[C@@H](CC(C)C)C(=O)N[C@@H](CO)C(=O)N[C@@H](C)C(=O)NCC(=O)N1CCC[C@H]1C(=O)N[C@@H](CO)C(=O)N[C@@H](CO)C(=O)NCC(=O)N[C@@H](C)C(=O)N1CCC[C@H]1C(=O)N1CCC[C@H]1C(=O)N1CCC[C@H]1C(=O)N[C@@H](CO)C(N)=O)C(C)C)C(=O)O [Compound 29] (HELM PEPTIDE1{Y.[Aib].Q.G.T.F.T.S.D.Y.S.I.Y.L.D.S.K.A.A.H.D.F.V.E.W.L.L.S.A.G.P.S.S.G.A.P.P.P.S.[am]}|PEPTIDE2{[CCCCCCCCCCCCCCCC(=O)[*:2]].[gGlu]}$PEPTIDE1,PEPTIDE2,17:R3-2:R2$$$V2.0)	0.15 nM	0.05 nM	0.15 nM	0.06 nM	0.05 nM	–	–	–	–	–	–	–	–	–	–
CC[C@H](C)[C@H](NC(=O)[C@H](CO)NC(=O)[C@H](Cc1ccc(O)cc1)NC(=O)[C@H](CC(=O)O)NC(=O)[C@H](CO)NC(=O)[C@@H](NC(=O)[C@H](Cc1ccccc1)NC(=O)[C@@H](NC(=O)CNC(=O)[C@H](CCC(N)=O)NC(=O)C(C)(C)NC(=O)[C@@H](N)Cc1ccc(O)cc1)[C@@H](C)O)[C@@H](C)O)C(=O)N[C@@H](Cc1ccc(O)cc1)C(=O)N[C@@H](CC(C)C)C(=O)N[C@@H](CC(=O)O)C(=O)N[C@@H](CO)C(=O)N[C@@H](CCCCN)C(=O)N[C@@H](C)C(=O)N[C@@H](C)C(=O)N[C@@H](CCCCN)C(=O)N[C@@H](CC(=O)O)C(=O)N[C@@H](Cc1ccccc1)C(=O)N[C@H](C(=O)N[C@@H](CCC(=O)O)C(=O)N[C@@H](Cc1c[nH]c2ccccc12)C(=O)N[C@@H](CC(C)C)C(=O)N[C@@H](CC(C)C)C(=O)N[C@@H](CO)C(=O)N[C@@H](C)C(N)=O)C(C)C [Compound 10] (HELM PEPTIDE1{Y.[Aib].Q.G.T.F.T.S.D.Y.S.I.Y.L.D.S.K.A.A.K.D.F.V.E.W.L.L.S.A.[am]}$$$$V2.0)	–	–	0.1 nM	–	–	0.1 nM	0.012 nM	0.24 nM	0.012 nM	–	–	–	–	–	–
B1	–	–	–	–	–	–	–	–	–	0.0092 nM	0.17 nM	0.065 nM	0.065 nM	0.009 nM	0.065 nM
B2	–	–	–	–	–	–	–	–	–	0.0095 nM	0.34 nM	0.018 nM	0.018 nM	0.01 nM	0.018 nM
H-Y[Aib]QGTFTSDYSKYLDSK([γGlu-Palmitoyl])AAHDFVEWLLSA-NH2 [Compound 2]	–	–	–	–	–	–	–	–	–	0.089 nM	0.35 nM	0.046 nM	0.046 nM	0.089 nM	0.046 nM
H-Y[Aib]QGTFTSDYSIALEKK([Peg3-Peg3-γGlu-Stearoyl])AQRAFVEWLLAQK-NH2 [Compound 46]	–	–	–	–	–	–	–	–	–	–	–	–	0.16 nM	0.011 nM	0.13 nM
H-YSQGTFTSDYSKYLDSKAAHDFVEWLLRA-NH2 [Compound 1]	–	–	–	–	–	–	–	–	–	0.033 nM	0.38 nM	0.013 nM	0.013 nM	0.033 nM	0.013 nM
B3	–	–	–	–	–	–	–	–	–	0.015 nM	0.13 nM	0.022 nM	0.022 nM	0.015 nM	0.022 nM
